# Values joined by “and” are separate entries in the source; they are usually repeats but may differ in a detail not shown here. Equal values may be shown once.
# Legend:
# [1] = target: T1, serum purified human Complement Factor D (human, UniProt P00746 26-253); assay: SPR Biacore, antibody on protein A chip, single cycle kinetics, 25 C;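 also: antibodies captured to roughly 70 RU on the protein A surface in HBS-EP+ running buffer, with kinetic constants derived by BIAevaluation fitting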
# T1 construct: Serum purified protein flowed over the captured antibodies; also called CFD; human CFD
# T1 sequence (P00746 26-253): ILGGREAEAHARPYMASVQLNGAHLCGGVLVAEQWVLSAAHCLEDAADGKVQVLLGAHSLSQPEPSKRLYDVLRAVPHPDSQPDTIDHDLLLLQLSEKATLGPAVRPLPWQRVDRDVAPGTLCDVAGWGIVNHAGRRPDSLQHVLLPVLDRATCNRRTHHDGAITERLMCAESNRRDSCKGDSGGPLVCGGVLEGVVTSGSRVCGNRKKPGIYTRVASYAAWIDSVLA
# Procedure: (§1) Antibodies were diluted to 0.5 ug/ml in HBS-EP+ buffer and captured on a protein A chip for 25 seconds to reach approximately 70 resonance units. […] Binding kinetic information was obtained by the BIAevaluation software (GE).
# [2] = target: T1, serum purified human Complement Factor D; assay: SPR Biacore, antibody on protein A chip, single cycle kinetics, 37 C;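 also: antibodies captured on the protein A surface to roughly 70 RU in HBS-EP+ buffer, with rate and affinity constants fitted using BIAevaluation software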
# Procedure: as §1
Binder,Kd [1],koff [1],kon [1],Kd [2],koff [2],kon [2]
"31S54I59D84S / 32W60W101V (antibody, V domains shown, Label printed 31S54I59D845, read as 84S; full antibody captured on protein A; also called 31S54I59D845 / 32W60W101V) VH: EVQLVESGGGLVQPGGSLRLSCAASGYTFTSYYMNWVRQAPGKGLEWIGDINPITGDTDYNADFKRRFTFSLDTSKSTAYLQMSSLRAEDTAVYYCTREGPSFAYWGQGTLVTVSS VL: DIQLTQSPSSLSASVGDRVTITCRSSQTIVHWNGDTYLEWYQQKPGKAPNLLIYKVSNRWSGVPSRFSGSGSGTDFTLTISSLQPEDFATYYCFQGSHVPVTFGQGTKVEIK",0.0203 nM,7.76e-05 s⁻¹,3.83e+06 M⁻¹ s⁻¹,0.0235 nM,0.000209 s⁻¹,8.9e+06 M⁻¹ s⁻¹
"31S54I59D / 50I60W101V (antibody, V domains shown, KCD119 TAF variant; full antibody captured on protein A) VH: EVQLVESGGGLVQPGGSLRLSCAASGYTFTSYYMNWVRQAPGKGLEWIGDINPITGDTDYNADFKRRFTFSLDTSKSTAYLQMNSLRAEDTAVYYCTREGPSFAYWGQGTLVTVSS VL: DIQLTQSPSSLSASVGDRVTITCRSSQTIVHSNGDTYLEWYQQKPGKAPILLIYKVSNRWSGVPSRFSGSGSGTDFTLTISSLQPEDFATYYCFQGSHVPVTFGQGTKVEIK",0.00774 nM,3.98e-05 s⁻¹,5.14e+06 M⁻¹ s⁻¹,0.0276 nM,0.000256 s⁻¹,9.26e+06 M⁻¹ s⁻¹
"54I59D / 32W60W101V (antibody, V domains shown, KCD119 TAF variant; full antibody captured on protein A) VH: EVQLVESGGGLVQPGGSLRLSCAASGYTFTDYYMNWVRQAPGKGLEWIGDINPITGDTDYNADFKRRFTFSLDTSKSTAYLQMNSLRAEDTAVYYCTREGPSFAYWGQGTLVTVSS VL: DIQLTQSPSSLSASVGDRVTITCRSSQTIVHWNGDTYLEWYQQKPGKAPNLLIYKVSNRWSGVPSRFSGSGSGTDFTLTISSLQPEDFATYYCFQGSHVPVTFGQGTKVEIK",–,3.5e-05 s⁻¹ and 8.32e-05 s⁻¹ and 6.85e-05 s⁻¹,7.57e+06 M⁻¹ s⁻¹ and 4.91e+06 M⁻¹ s⁻¹ and 5.83e+06 M⁻¹ s⁻¹,0.0131 nM and 0.00972 nM and 0.00501 nM,–,1.5e+07 M⁻¹ s⁻¹ and 6.86e+06 M⁻¹ s⁻¹ and 1.17e+07 M⁻¹ s⁻¹
"54I59D / 32W33G60W101V (antibody, V domains shown, KCD119 TAF variant; same label printed in three rows) VH: EVQLVESGGGLVQPGGSLRLSCAASGYTFTDYYMNWVRQAPGKGLEWIGDINPITGDTDYNADFKRRFTFSLDTSKSTAYLQMNSLRAEDTAVYYCTREGPSFAYWGQGTLVTVSS VL: DIQLTQSPSSLSASVGDRVTITCRSSQTIVHWGGDTYLEWYQQKPGKAPNLLIYKVSNRWSGVPSRFSGSGSGTDFTLTISSLQPEDFATYYCFQGSHVPVTFGQGTKVEIK",0.0514 nM and 0.0534 nM and 0.0778 nM,0.0004 s⁻¹ and 0.000328 s⁻¹ and 0.000352 s⁻¹,7.78e+06 M⁻¹ s⁻¹ and 6.14e+06 M⁻¹ s⁻¹ and 4.53e+06 M⁻¹ s⁻¹,0.105 nM and 0.0979 nM and 0.135 nM,0.0012 s⁻¹ and 0.00148 s⁻¹ and 0.00117 s⁻¹,1.14e+07 M⁻¹ s⁻¹ and 1.51e+07 M⁻¹ s⁻¹ and 8.69e+06 M⁻¹ s⁻¹
"54I59D84T / 32W60W101V (antibody, V domains shown, KCD119 TAF variant; full antibody captured on protein A) VH: EVQLVESGGGLVQPGGSLRLSCAASGYTFTDYYMNWVRQAPGKGLEWIGDINPITGDTDYNADFKRRFTFSLDTSKSTAYLQMTSLRAEDTAVYYCTREGPSFAYWGQGTLVTVSS VL: DIQLTQSPSSLSASVGDRVTITCRSSQTIVHWNGDTYLEWYQQKPGKAPNLLIYKVSNRWSGVPSRFSGSGSGTDFTLTISSLQPEDFATYYCFQGSHVPVTFGQGTKVEIK",0.0169 nM,8.43e-05 s⁻¹,4.99e+06 M⁻¹ s⁻¹,0.0258 nM,0.000365 s⁻¹,1.41e+07 M⁻¹ s⁻¹
"31S54I59D / 32W60W101V (antibody, V domains shown, KCD119 TAF variant; full antibody captured on protein A) VH: EVQLVESGGGLVQPGGSLRLSCAASGYTFTSYYMNWVRQAPGKGLEWIGDINPITGDTDYNADFKRRFTFSLDTSKSTAYLQMNSLRAEDTAVYYCTREGPSFAYWGQGTLVTVSS VL: DIQLTQSPSSLSASVGDRVTITCRSSQTIVHWNGDTYLEWYQQKPGKAPNLLIYKVSNRWSGVPSRFSGSGSGTDFTLTISSLQPEDFATYYCFQGSHVPVTFGQGTKVEIK",0.0165 nM,6.3e-05 s⁻¹,3.83e+06 M⁻¹ s⁻¹,0.0343 nM,0.000225 s⁻¹,6.55e+06 M⁻¹ s⁻¹
"54I59D / 32W54S101V (antibody, V domains shown, Light label printed 32W545101V, read as 32W54S101V; also called 54I59D / 32W545101V) VH: EVQLVESGGGLVQPGGSLRLSCAASGYTFTDYYMNWVRQAPGKGLEWIGDINPITGDTDYNADFKRRFTFSLDTSKSTAYLQMNSLRAEDTAVYYCTREGPSFAYWGQGTLVTVSS VL: DIQLTQSPSSLSASVGDRVTITCRSSQTIVHWNGDTYLEWYQQKPGKAPNLLISKVSNRFSGVPSRFSGSGSGTDFTLTISSLQPEDFATYYCFQGSHVPVTFGQGTKVEIK",0.00948 nM,7.29e-05 s⁻¹,7.69e+06 M⁻¹ s⁻¹,0.011 nM,0.000155 s⁻¹,1.41e+07 M⁻¹ s⁻¹
"31S54I59D / 54G101V (antibody, V domains shown, KCD119 TAF variant; full antibody captured on protein A) VH: EVQLVESGGGLVQPGGSLRLSCAASGYTFTSYYMNWVRQAPGKGLEWIGDINPITGDTDYNADFKRRFTFSLDTSKSTAYLQMNSLRAEDTAVYYCTREGPSFAYWGQGTLVTVSS VL: DIQLTQSPSSLSASVGDRVTITCRSSQTIVHSNGDTYLEWYQQKPGKAPNLLIGKVSNRFSGVPSRFSGSGSGTDFTLTISSLQPEDFATYYCFQGSHVPVTFGQGTKVEIK",0.00689 nM,8.25e-05 s⁻¹,1.2e+07 M⁻¹ s⁻¹,0.00931 nM,0.000222 s⁻¹,2.38e+07 M⁻¹ s⁻¹
"31S54I59D84T / 32W60W101V (antibody, V domains shown, KCD119 TAF variant; full antibody captured on protein A) VH: EVQLVESGGGLVQPGGSLRLSCAASGYTFTSYYMNWVRQAPGKGLEWIGDINPITGDTDYNADFKRRFTFSLDTSKSTAYLQMTSLRAEDTAVYYCTREGPSFAYWGQGTLVTVSS VL: DIQLTQSPSSLSASVGDRVTITCRSSQTIVHWNGDTYLEWYQQKPGKAPNLLIYKVSNRWSGVPSRFSGSGSGTDFTLTISSLQPEDFATYYCFQGSHVPVTFGQGTKVEIK",0.0157 nM,6.01e-05 s⁻¹,3.83e+06 M⁻¹ s⁻¹,0.0288 nM,0.000224 s⁻¹,7.79e+06 M⁻¹ s⁻¹
"54I59D / 32W54S60W101V (antibody, V domains shown, Light label printed 32W54560W101V, read as 32W54S60W101V; also called 54I59D / 32W54560W101V) VH: EVQLVESGGGLVQPGGSLRLSCAASGYTFTDYYMNWVRQAPGKGLEWIGDINPITGDTDYNADFKRRFTFSLDTSKSTAYLQMNSLRAEDTAVYYCTREGPSFAYWGQGTLVTVSS VL: DIQLTQSPSSLSASVGDRVTITCRSSQTIVHWNGDTYLEWYQQKPGKAPNLLISKVSNRWSGVPSRFSGSGSGTDFTLTISSLQPEDFATYYCFQGSHVPVTFGQGTKVEIK",0.00858 nM,5.37e-05 s⁻¹,6.25e+06 M⁻¹ s⁻¹,0.0124 nM,0.000136 s⁻¹,1.1e+07 M⁻¹ s⁻¹
"34I54I59D / 32W60W101V (antibody, V domains shown, KCD119 TAF variant; full antibody captured on protein A) VH: EVQLVESGGGLVQPGGSLRLSCAASGYTFTDYYINWVRQAPGKGLEWIGDINPITGDTDYNADFKRRFTFSLDTSKSTAYLQMNSLRAEDTAVYYCTREGPSFAYWGQGTLVTVSS VL: DIQLTQSPSSLSASVGDRVTITCRSSQTIVHWNGDTYLEWYQQKPGKAPNLLIYKVSNRWSGVPSRFSGSGSGTDFTLTISSLQPEDFATYYCFQGSHVPVTFGQGTKVEIK",0.0211 nM,0.000136 s⁻¹,6.45e+06 M⁻¹ s⁻¹,0.0217 nM,0.000279 s⁻¹,1.29e+07 M⁻¹ s⁻¹
"31S54V59D / 101V (antibody, V domains shown, KCD119 TAF variant; full antibody captured on protein A) VH: EVQLVESGGGLVQPGGSLRLSCAASGYTFTSYYMNWVRQAPGKGLEWIGDINPVTGDTDYNADFKRRFTFSLDTSKSTAYLQMNSLRAEDTAVYYCTREGPSFAYWGQGTLVTVSS VL: DIQLTQSPSSLSASVGDRVTITCRSSQTIVHSNGDTYLEWYQQKPGKAPNLLIYKVSNRFSGVPSRFSGSGSGTDFTLTISSLQPEDFATYYCFQGSHVPVTFGQGTKVEIK",0.0188 nM and 0.0176 nM,0.000131 s⁻¹ and 0.000101 s⁻¹,6.95e+06 M⁻¹ s⁻¹ and 5.71e+06 M⁻¹ s⁻¹,0.0411 nM,0.000373 s⁻¹,9.08e+06 M⁻¹ s⁻¹
"48V54V59D / 32W60W101V (antibody, V domains shown, KCD119 TAF variant; full antibody captured on protein A) VH: EVQLVESGGGLVQPGGSLRLSCAASGYTFTDYYMNWVRQAPGKGLEWVGDINPVTGDTDYNADFKRRFTFSLDTSKSTAYLQMNSLRAEDTAVYYCTREGPSFAYWGQGTLVTVSS VL: DIQLTQSPSSLSASVGDRVTITCRSSQTIVHWNGDTYLEWYQQKPGKAPNLLIYKVSNRWSGVPSRFSGSGSGTDFTLTISSLQPEDFATYYCFQGSHVPVTFGQGTKVEIK",0.0159 nM,9.5e-05 s⁻¹,5.96e+06 M⁻¹ s⁻¹,0.0212 nM,0.000278 s⁻¹,1.31e+07 M⁻¹ s⁻¹
"54I59D / 50I60W101V (antibody, V domains shown, KCD119 TAF variant; full antibody captured on protein A) VH: EVQLVESGGGLVQPGGSLRLSCAASGYTFTDYYMNWVRQAPGKGLEWIGDINPITGDTDYNADFKRRFTFSLDTSKSTAYLQMNSLRAEDTAVYYCTREGPSFAYWGQGTLVTVSS VL: DIQLTQSPSSLSASVGDRVTITCRSSQTIVHSNGDTYLEWYQQKPGKAPILLIYKVSNRWSGVPSRFSGSGSGTDFTLTISSLQPEDFATYYCFQGSHVPVTFGQGTKVEIK",0.0121 nM,6.67e-05 s⁻¹,5.53e+06 M⁻¹ s⁻¹,0.0318 nM,0.000329 s⁻¹,1.04e+07 M⁻¹ s⁻¹
"31S54V59D / 32W60W101V (antibody, V domains shown, KCD119 TAF variant; full antibody captured on protein A) VH: EVQLVESGGGLVQPGGSLRLSCAASGYTFTSYYMNWVRQAPGKGLEWIGDINPVTGDTDYNADFKRRFTFSLDTSKSTAYLQMNSLRAEDTAVYYCTREGPSFAYWGQGTLVTVSS VL: DIQLTQSPSSLSASVGDRVTITCRSSQTIVHWNGDTYLEWYQQKPGKAPNLLIYKVSNRWSGVPSRFSGSGSGTDFTLTISSLQPEDFATYYCFQGSHVPVTFGQGTKVEIK",0.0158 nM,8.84e-05 s⁻¹,5.58e+06 M⁻¹ s⁻¹,0.0227 nM,0.000293 s⁻¹,1.29e+07 M⁻¹ s⁻¹

# Reference: patent US20180334496A1 (KODIAK SCIENCES, published 2018)
